Molecular target: Arp3 (subunit of the human Arp2/3 complex, activated conformation at the branch) (human, UniProt P61158 1-418)
Assay: cryo-EM structure; actin branches reconstituted from Arp2/3, VVCA, SPIN90, actin and capping protein, then 1.9 uM full-length cortactin and 10 uM phalloidin; 20 mM HEPES pH 7.5, 50 mM KCl, 1 mM EGTA, 1 mM MgCl2, 0.2 mM ATP, 1 mM DTT; room temperature; overall resolution about 3.3 Å
Details: both partners purified

binding result: binds
B1: Full-length mouse cortactin (natural protein)
chain: not shown
notes: cortactin, mouse, residues 1-546, UniProt Q60598; only residues 21-79 (NtA) and 80-116 (first central repeat) were built in the model; also called full-length cortactin
